Measurements as given in a protein production outcome set (Wang et al. 2014).

Assay: label from the status in PepcDB records

Sequence | protein production
MRSIAMQAADLYVLQTAQSWLDAGQAAVLLTVARTWGSSPRPPGAMMAIRADGAVAGSVSGGCIEDDLIDQIRQRGIAALCPGARPALATYGVDGEQARRFGLPCGGTLQLVLEPLGAHSRLADLLARLRAHQTVRRSVRLADGAVTLEPAAADAEPRLDGAGFASVLGPRHRLLVVGAGQLSRYLCEMAIALDFDVTVSDPRQEYRAGWQVEGVALTTAMPDDMVIAARPDARTAVIALTHDPKLDDLALIDALQTPAFYVGALGSRANHARRVARLREHFGLTPAQLARLRGPAGIYIGSRTPPEIALSIMAEIVAGKNGAPLPPAASVAAGKARQPGGAGVIQAGLCATL | failed
MRSNTFIQFAATLVAFVAACLFPAWSMAATHNVVLSAETLPNGQPAYKLLSHTSSNGTVPGYATEATIPGPTLFIKTGDKINVQLTNNTQSPVSFTAPGLSTGNSALAAPGQTKSYRLNARKAGTFAYHDEKAPMLGLFGAIVVDESNGHVQSYVDGDGTIVSTKRSQLSKEFVLFMVGSTFWGAEISRNGNQQPLWANPDLGAYQDDLLRFHVLAVGPGHTFHLHAHRWIEPGSSQKTPHIIDTHILDDLNNSHVFTIKAGTGVGPGVWQLHCHLISHMQSGMNSRIHVVARDSGQSADSIVGASPSGAIFLNDSDQPGLVTFIVSDEPAGWFRSARGDALSPVTHTKSLEIIPPGSSVHFVMSDTAGVHTITSLLWPSEAGHNDHGGDHFMIPFDETKAYRGGAILKLNVPGLYVFTCKIHPFMFAAVIVDDPATDGLDLGNTIDLISGVKNLPTSSDLATRLLHTFFVTTVPKNWQDFTSPNPWKIAYPDVDVVVDIGKVSLPAVLNARYGNDISLSPLPRPAVPGIGEVWVDTQFEKTAGKTKPGTITVVDTSNWTLKRKIALPQINMNNPHNMWPNRDHSIVYTTQWFDNKLTAIKQKTGKLASNVQVGDSPSHVMTLPNTDDITVAINGENDIVIIPAGTTKVNYALLTQSHGQAPGNPHGHWISADGKRIITPNINTHDAGFYDVEDGKIVARTATGEGQPGAHPIAIGMLPDSSKVYAANLLHHSVSVMDGDGNFIKNINLIEHYDPISGAINGPIGILPIQSPVSPDGKVMVTASYGGQIVVIDTRTDSIVKSLPCDPGCHGANFGAKKGGGYYAYITNKFSNRLIVVDPDPNGDGDLSDAEIAGAVTLVADSRVPKDDKISSLAGFGGQGIVALPNVYNGWVQNLNSQWSAGLTDQQRNPVQ | failed
MRSRVVREGSVGLMLVAGVGALAGLIFWLRGVSLGQDRYDVIVEFNDTAGLTVGTPVIYRGVQVGQVIDITAQSNSVLVRIQIQPASLAIPRDSVISAQISSLLGSPNLTIEPKRNIPAEVLAKTQPRSPNCDRAVILCNGSVVEGAQSASFASILTSIATLVSEIEQAKLVNTLSQTSRDASEAARSIRQLSSSLQQQIPPLRETLNAAQGAASQVEAAIAENRQSVRTTLTNLESSSQELQDILNSLEPAIDKANSGKLVDNLNELSANLAVASRNIRDVSTALNSPENLLTLQQTLDSARITFQNAQKITTDLNRLTGDPAVIENIRRLINSLGRLLSSTGALQEQVTDLKSLPLLPVSESPAGEAVVRRPNQP | failed
MRSSKMDMPIVLSKRHRRLRSMKDCEPGLPYNEIVENGKRIDLCYSKQYKKYTKKIEIRVGTSILHNKLLRIFPNIVKIYSKHFINLPDLITENTEKRELIFIELENLIIGGGTSGLGVLSEISKEEKTLLISSNIESNTDIPYPLPQINKDEFSKLLRDTINENKDRILEGILLGKFDEGIGFLTKDKILMVRAKRVFLATGGRYIPPIFDGNDIPGIISKNLYLRYGNRITKAIALGNSDDIIKVLFKVEKRVIINNGVLFLSKYYKELIDELGVEIINTNNLKVKREKGGMLKIITNERSFDSNILVYAIVKQPKIDHSYNIGIPYNFSEYFHIYMPIHSIEGKTNDNIYIVGGMRGISDEYTSFLSGKTAVNEKYLDEFINNLKDYTYIYDYYYQKNPKENPSPYIYGNKGYVCECEDITLSEVNRQVGRGFSKVEEIKRTIGLGTGECQGKLCTYSLGSFLGDRQLITFRTPLYRMVI | failed
MRTDFNVFTTGGAPMKQIIRQFSIGTVAYAIMQVASAQVAITNVVPMNIPGQGTEIRVMFNGLPPQPQAYQLEQPARLILDFDKAGQKLAKSLIPVTTNEASSIDVSSDDKRARVVVNLKDAGAFTTRVEGNVFILKINNIQSTATPVATSAPAPQQGIGNIGFQRGAQGEGLVVIDLQGTNTPVDVQQQGSKVVVRFPGIKIPTHLARRLNTTDFATPVASIDSYNDGSNGVISIQSTGSYEYMAYQAENKLTISLKRPQDNVRLNSKNNQNYTGKKISLDFQDIEVRRVLQLLADFTNINMVTADSVQGNITLHLKDVPWDQALDIILKTKNLDKRRNGNVIWIAPVSELIKSEEDEAKAIAQSTKLAPLQTEYILLKYAKAADIEKLITQGRNSGTSNSNTNGSATVEPLGDSVGTLLSPRGTISLDPRTNTLIINDTSQKIDQIRKMIDLLDIPVKQVMIEARIVRATTSFSKEMGVKWGILSQGINQNSNLLVGGSETTLWNLRNPDSNGTYTIERPDNLNVDLGVTTTGASSIAFGLISLSDFMLDLELSALQADGYGEVISTPKVMSADKQKAKVATGVEVPYQSTTNSAAGSTATTSFKEALLSLEVTPNITPDGKILMELNIANDSINSYAQNGEAILNKNTINTNVLVNNGETVVLGGVFEQTTNNAVTKVPFLGDLPYVGRLFKKTAKSEAKNELLIFVTPRIVNDTIVGNH | failed
MRTILFKSVPFSKEAVTLALESGVDGIIVPEKHVAPVQALARCKVLCDDAVCTLELTAKADEEEAASRLAAGEDVVLARGWEIIPVENLLARSDRVTVEVASLDEARLAAGILERGVSTVVVLPQAVTELKAIVQELKLSQGRIDLAPAVVTAVRPVGLGHRVCVDTMSLLRTGQGMLVGNSSAFTFLVNAETEHNEYVAARPFRINAGAVHAYAVMPGDRTTYLEELRSGSEVLIVGADGATTIATVGRLKVEVRPMLLVEARVGDTVGAVFLQNAETIRLVRADGTPVSVVALREGDEVLCRTDVAGRHFGMRITEDIREA | failed
MRTLNKDEHNYIKQIANIHETLLSQVESNYKCTKLSIALRYEMICSRLEHTNDKIYIYENEGQLIAFIWGHFSNEKSMVNIELLYVEPQFRKLGIATQLKIALEKWAKTMNAKRISNTIHKNNLPMISLNKDLGYQVSHVKMYKDID | not failed
MRTRIERTEEMVEQLPLVSVLIPTYNRPSYFEKALCSVLEQTYPNIEIIVGDDSTNDETEKLLQKYLCDHSNIIYIKNRSTLGQFENALMLFNEANGEYINFLMDDDVFHVNKIEKMMKYFFNDLDNEIKLVTSHRQVIDDKGKELRHIYSTVRLFEEDTIIEGTELGNKVIVDQKNYIGEPTTVLFRKNDLQEPYGIFDKRRYLCNVDIASWLSLLSKGKAVYIAETLSYFRLHPDQQLNESNKMMDGLEDFSHSIIAGEQYGFLSTEKELDKAITNFLDYARRIVPSSILYTLDYYQKIRAKKINIEKKKQHINNNSSLPKVSILIPAYNRPYYLELALNSALNQTYENIEIIISDDSTNNEVNAMIQPYLREYECITYVKNETPLVAENFNKCVELANGDYMNFLLDDDLFHHEKIERMMKYFLTLENISFVTSYRELIDENGEILPPSTLNMKIAKETTLFEGKELGNYMLKNLKNVVGEPTTVLFNRDLFDGKFGYFKGKAYSAINDIATWLDMMRKGKVVYIHEPLSYFRQHSGQNQKQMHFILMTIEEWIELIIDAYNSGFLSSESEYKESLSYCLENAGFIVKDAVRNGELDQIYNEKIKKGLNKLVAHMFEKESCYCQYCNQQFEKFSPWPAHYDFPKYKFEMWNKDTGICPVCNSMDRERLYRAYIETETDLLNRNYTMLHIAPEAKLRDWFNEYKNITYVCGDLEPKDPLMKEIDVTRITYDSNTFDVILCSHVLEHVPDDDKAMRELYRVLKPNGWGIIQVPIVMNVDFIIENELIVTPQLRKLAFGQEDHVRIYNQSGFIQRLMNAGFKVELYNIAEKQGMKGARKFGLSETDMLYIVRK | failed
MRTSAFVPVLLFALLGALVGCSGGTELTYSGPEEAYKKGVAEMEEGDHQQAIRFFRAVFEYGRGNEWAPDARFKLAMAQRGLNKHLVAANEFQRFTQLYRNDELLPRAEFERANSYYLRSPSYRLDQSDSEQAISLFRLFIDRHPNHELVPEAEEKINELRAKLARKKYEAGRLYEQRDMWQAATTVYERAFDQYPDTPWADDALLGAVRTYIRYADRSVESKQAERYQKAIENYNRLTQLFPESTLLGRAEDLYSEAREKLDRAQAQQGEQSLAQEDASSGSN | failed
MRTTAAEEAGLETETARRRFSRASLVNVAGNAVKILVEGAVGLAFGSVALLADAAHSVADLVASAVVLVWGRSVYTDPDENHPHGHQRVEPLAALFVGSLIVLLGLNLFYESATGLVAGPEVQFHPLLVGALLFAMADMYLLYWYTTHINESVGSSALEALAIDCRNDIYTTIAALCGVIGVFFGYPLFDAVAGGLVSVLVVYQGFEISRENVSYLVGASPSDQQRQRVVETLTDHPAVHGAHDVAVFYDGTDIEVEAHVEVDGELTLVEAHDIETELVSALRSLESVGDVHLHLDPAGIGEWKDAAVNEQRGPETQTGSPKQ | failed
MRTVLNILNFVLGGFATTLAWLLATLVSIVLIFTLPLTRSCWEITKLSLFPYGNEAIHVDELNPAAKSVLMNTGGTLLNIFWLLFFGWWLCLMHIASGIAQCVTIIGIPVGIANFKIAAIALWPVGRRVVSVETARAAREANARRRFE | failed
MRTVLNILNFVLGGFATTLGWLLATLVSIVLIFTLPLTRSCWEITKLSLVPYGNEAIHVDELNPAGKNVLLNTGGTVLNIFWLIFFGWWLCLMHIATGIAQCISIIGIPVGIANFKIAAIALWPVGRRVVSVETAQAAREANARRRFE | failed
MRTVTGAILAMNLEVKDFVHRDVEEADRRLREIGARKILLQLPDGLKPYAFDYFTYLSQRYDVILSSSPVYGACDIGPSYLYDRVDAIVQVGHSIMRNVKYPRPVIFIEHYRTVDVEDINTEALKNYRRIGLIYSIQYRPVADRVKRILESKGFEVIIGRSDRRMTYDGQVLGCNFSSVHSVEAEVEAFVIVSTGSFHALGSQISTERPVFLLDLNEMSLRSMEKEADTFIRKRYAQIYRAMDAKRICFLVDTRIGQRREKLARMLMDRARDLGKEAVLAYTDNISDQDIQNMGCDLAVYTGCPRVPIDDQDRFTVPVLTPAEFSMAFFKSSKRYVLDEIVSVDEFTDQLEHHHHHH | failed
MRVARLFRFPVKGFPAEEIPEADVRTGRGIRGDRVAAFTNGSLDIPDDSWHRYSAFTVLKNDTDLQKWQVELDLAEAADSSQPAVADPSATVTLTSPQNETTTFRTDDRDTRATSADFLSARIPPQGDFPRALSVADQGMFDSQAAGVSIINPATVAAISQTADGQAALAPGETELDPLRFRGNVLVDGLAPFEEFALIGKIVRLGGVRLAITQAIERCPATTVNPTTTAVDVNVPRVLASACGHLHCGVYGRILESGLVSTGDEIEIEGDAPRELVKTARTPRFMTVLGSQQICNDIVEVSLRDDQGWIREFDEPGTNLRVHLDLGEPFWRTYTITDVSDDIVSIAVRTQGKGSRAVAELAAGQSVLASGPHGTMTANRVFGGTTALVTAGIGITPSLGLMRGAELSGTEKIKLFHVDRDHRTACLWDRLQKRAHSRQIPVETHHRDTASQGRPGHADLVDWLAGCDNVMVCGPADFTRAVLDASAEAGVPAVHQEIFASPNTGMSEAIAQCSPAEVTLENSGTSFLWEPQQGTLLEALEARGLRADNSCRGGSCGTCAVSLAAGSVIYPVEPAARIAADEVLVCSAVPSGPISLGILEHHHHHH | failed
MRVDIVPVGDVPAHVKRQASSSLRSVYDCEVVVASEQDVPTAAYDEARSQYRAAEFIDTATRATSGDKTIAITPHDLFYRRRNYVFGLAYLDGRGCVVSTYRLQTSSDGGFSNRSSSDVFDDRVRKEVVHELGHTLGLEHCDNNRCAMNFSPTVREVDRKEENLCGSCQRTVFLEHHHHHH | not failed
MRVEDVMVTDVDTIDITASLEDVLRNYVENAKGSSVVVKEGVRVGIVTTWDVLEAIAEGDDLAEVKVWEVMERDLVTISPRATIKEAAEKMVKNVVWRLLVEEDDEIIGVISATDILRAKMAKRY | not failed
